Data reported in patent US20230227568A1 (Pieris, published 2023).

Legend:
hu4-1BB-Fc (R&D Systems) = target: T1, hu4-1BB-Fc (R&D Systems) (human, UniProt Q07011 24-186); experiment: SPR, hu4-1BB-Fc captured
T1 construct: Bought; also called human 4-1BB; not shown: human IgG Fc of the bought fusion

human 4-1BB on cells = target: T2, human 4-1BB on cells (human, UniProt Q07011 24-255); experiment: flow cytometry, Flp-In-CHO::hu4-1BB cells
T2 construct: whole, on cells; Stably transfected CHO cells (flow cytometry) and bought Jurkat reporter cells (bioassay); also called Flp-In-CHO::hu4-1BB; human 4-1BB-expressing CHO cells
T2 sequence (Q07011 24-255): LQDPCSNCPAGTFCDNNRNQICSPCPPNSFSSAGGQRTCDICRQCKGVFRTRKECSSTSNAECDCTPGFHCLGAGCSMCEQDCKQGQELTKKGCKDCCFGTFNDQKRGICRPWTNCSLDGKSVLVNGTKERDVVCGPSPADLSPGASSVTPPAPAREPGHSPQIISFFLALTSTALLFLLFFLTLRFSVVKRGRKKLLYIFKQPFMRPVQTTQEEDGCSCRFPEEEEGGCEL
Protocol: 5×10⁴ cells per well were incubated for 1 h in ice-cold PBS containing 5% fetal calf serum (PBS-FCS). A dilution series of the tested multimeric proteins (SEQ ID NOs: 38-44 and 46-55), the 4-1BB-targeting lipocalin mutein as included in the multimeric proteins (SEQ ID NO: 64) or the GPC3-targeting lipocalin SEQ ID NO: 90 were added to the cells and incubated for 1 h on ice. Cells were washed twice with PBS and then incubated with a rabbit anti-NGAL or a goat anti-human IgG labeled with fluorescent dye Alexa 488 for 30 min on ice. Human IgG4 isotype (SEQ ID NOs: 29 and 30) and lipocalin mutein SEQ ID NO: 8 were tested as a negative control. Cells were subsequently washed and analyzed using iQue Flow cytometer (Intellicyte Screener). Mean geometric fluorescent signals were plotted and fitted with Graphpad software using nonlinear regression (shared bottom, four parameters, variable slope).
Target-specific binding of hexavalent trimeric proteins to human 4-1BB-, OX40- or PD-L1-expressing cells was assessed by flow cytometry as described in Example 5, using CHO cells stably transfected with human 4-1BB, human OX40 or human PD-L1 (Flp-In system; Life Technologies).

human PD-L1 on CHO cells = target: T3, human PD-L1 on CHO cells (human, UniProt Q9NZQ7 19-290); experiment: flow cytometry, Flp-In-CHO::huPD-L1 cells
T3 construct: whole, on cells; Stably transfected CHO cells; also called Flp-In-CHO::huPD-L1; human PD-L1-expressing CHO cells
T3 sequence (Q9NZQ7 19-290): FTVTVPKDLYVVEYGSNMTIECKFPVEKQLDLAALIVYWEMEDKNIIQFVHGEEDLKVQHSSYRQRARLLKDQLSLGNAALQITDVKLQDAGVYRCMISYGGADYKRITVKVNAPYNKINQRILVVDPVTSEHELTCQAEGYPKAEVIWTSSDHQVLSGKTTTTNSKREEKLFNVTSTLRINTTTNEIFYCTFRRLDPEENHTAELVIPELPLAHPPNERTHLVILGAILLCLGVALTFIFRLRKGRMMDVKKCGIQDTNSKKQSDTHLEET

| binding result (hu4-1BB-Fc (R&D Systems)) | EC50 (human 4-1BB on cells) [nM] | EC50 (human PD-L1 on CHO cells) [nM] | Binder |
| --- | --- | --- | --- |
| binds | – | – | multimeric protein SEQ ID NO: 45 (designed binder) GVRLWATRQAMLGQVHEVPEGWLIFVAEQEELYVRVQNGFRKVQLEARTPLGGGGSGGGGSGGGGSGGGGSGGGGSQDSTSDLIPAPPLSKVPLQQNFQDNQFHGKWYVVGQAGNIRLREDKDPIKMMATIYELKEDKSYDVTMVKFDDKKCMYDIWTFVPGSQPGEFTLGKIKSFPGHTSSLVRVVSTNYNQHAMVFFKFVFQNREEFYITLYGRTKELTSELKENFIRFSKSLGLPENHIVFPVPIDQCIDGGGSGGAPEQKLISEEDLGSHHHHHHHHHH |
| – | 4.71 | 1.23 | bispecific hexavalent trimeric protein SEQ ID NO: 167 (designed binder) QVQLQESGPGLVKPSETLSITCTVSGFSLSNYDISWIRQPPGKGLEWLGVIWTGGATNYNPALKSRLTISRDNSKNQVSLKMSSVTAADTAVYYCVRDSNYRYDEPFTYWGQGTLVTVSSGGGGSGGGGSGGGGSGGGGSEIVLTQSPDTLSVTPKEKVTLTCRASQSIGTNIHWFQQKPGQSPKLLIKYASESISGVPSRFSGSGSGTDFTLTINSVEAEDAATYYCQQSNSWPYTFGQGTKLEIKGGGGSGGGGSGGGGSGVRLWATRQAMLGQVHEVPEGWLIFVAEQEELYVRVQNGFRKVQLEARTPLGGGGSGGGGSGGGGSQDSTSDLIPAPPLSKVPLQQNFQDNQFHGKWYVVGQAGNIRLREDKDPIKMMATIYELKEDKSYDVTMVKFDDKKCMYDIWTFVPGSQPGEFTLGKIKSFPGHTSSLVRVVSTNYNQHAMVFFKFVFQNREEFYITLYGRTKELTSELKENFIRFSKSLGLPENHIVFPVPIDQCIDGGGSGGAPEQKLISEEDLGSHHHHHHHHHH |
